Experiments:
[1] = system: Zymoseptoria tritici (SEPTTR-184); experiment: Efficacy of target gene fragments (MgCytB dsRNA tiles) on wheat plants, SEPTTR-184; type: in vivo; parameters: Average of 2 trials SEPTTR-184 3DC / Average of 2 trials SEPTTR-184 1DP: scale not given here
Method: The 200 ppm rate for each treatment was prepared by adding the calculated volume of the corresponding dsRNA solution in TE buffer. Lower rates were prepared as 4-fold dilutions (50 ppm, 12.5 ppm, and 3.12 ppm). A non-target dsRNA control (YFP), a TE/phosphate buffer control, disease pressure control, and clean plant control were included.
(§1) These plants were inoculated with an aqueous spore suspension of Zymoseptoria tritici either prior to or after fungicidal treatments. After inoculation the plants were kept in 100% relative humidity to allow spores to germinate and infect the leaves. The plants were then transferred to a greenhouse until disease developed.

[2] = system: Zymoseptoria tritici (SEPTTR) US-184; experiment: CytB dsRNA foliar application bioassay on wheat seedlings, SEPTTR US-184; type: in vivo; details: compared to the non-treated control; strain not given
Method: RNAi (dsRNA) fungicidal solutions were prepared in TE buffer (pH 8.0), which were then mixed with 9 volumes of phosphate buffer (pH 7.5) containing 0.1% Triton X-100. The fungicidal solutions were applied to wheat seedlings using an automated booth sprayer to run-off. All sprayed plants were allowed to air dry prior to further handling.
The following served as controls: 1% silwet in phosphate buffer control, disease pressure control (untreated), and clean plant control (negative control).
as §1

B1: MgCytB-T3: 116 bp dsRNA of Zymoseptoria CytB region 3, location 279-394 (SEQ ID NO:6) (nucleic acid, listed as Zymoseptoria tritici)
chain: TTACCTGCACGTGGGTAGAGGGTTATACTACGGGTCATACAAAGCCCCTAGAACATTAACATGAACAATCGGTACTATAATACTAGTTCTGATGATGGCAACCGCATTCTTAGGGT
modifications: long dsRNA, chemistry not given here, further chemistry not given here
ED50 SEPTTR-184 1DP ([1]; 1DP (preventative)): <3.125 ppm | ED80 SEPTTR-184 1DP ([1]; 1DP (preventative)): >200 ppm | Disease Control All Rates Average SEPTTR-184 1DP ([1]; 1DP (preventative), average of 200, 50, 12.5, 3.125 ppm): 68% | Sum of Disease Control SEPTTR-184 1DP ([1]; 1DP (preventative), sum over 200, 50, 12.5, 3.125 ppm): 271% | ED50 SEPTTR-184 3DC ([1]; 3DC (curative)): <3.125 ppm | ED80 SEPTTR-184 3DC ([1]; 3DC (curative)): <3.125 ppm | Disease Control All Rates Average SEPTTR-184 3DC ([1]; 3DC (curative), average of 200, 50, 12.5, 3.125 ppm): 84% | Sum of Disease Control SEPTTR-184 3DC ([1]; 3DC (curative), sum over 200, 50, 12.5, 3.125 ppm): 334% | Average of 2 trials SEPTTR-184 1DP ([1]; 3.125 ppm, 1DP (preventative)): 59 | Average of 2 trials SEPTTR-184 3DC ([1]; 3.125 ppm, 3DC (curative)): 84 | Average of 2 trials SEPTTR-184 1DP ([1]; 12.5 ppm, 1DP (preventative)): 64 | Average of 2 trials SEPTTR-184 3DC ([1]; 12.5 ppm, 3DC (curative)): 84 | Average of 2 trials SEPTTR-184 1DP ([1]; 50 ppm, 1DP (preventative)): 74 | Average of 2 trials SEPTTR-184 3DC ([1]; 50 ppm, 3DC (curative)): 81 | Average of 2 trials SEPTTR-184 1DP ([1]; 200 ppm, 1DP (preventative)): 74 | Average of 2 trials SEPTTR-184 3DC ([1]; 200 ppm, 3DC (curative)): 84 | level of control, ranking among fragments ([1]; in vivo): best level of control | control of Septoria leaf blotch on wheat seedlings [2]: observed to control Septoria leaf blotch

— patent US10392620B2, “Cytochrome B (CYTB) nucleic acid molecules that control pathogens” (Dow AgroSciences LLC, priority 2016, dated 2019)
